Results published in patent US12522647B2, “Beta-arrestin mutants” (PAUL SCHERRER INSTITUT, priority 2019, dated 2026).

Target: T1, β2-adrenergic receptor (β2AR, B2AR) (Homo sapiens, UniProt P07550)
T1 construct: expressed in transfected cells; host or cells: HEK293 cells (transient co-transfection, Lipofectamine 2000)
Assay: BRET arrestin recruitment assay: isoproterenol-induced recruitment of GFP-arrestin-3 WT or mutants to RLuc8-β2AR
Format: cell-based
Details: for Potency (pEC50 ± Std. error): isoproterenol concentration giving half-maximal arrestin recruitment to β2AR, BRET AUC over 19.5 min, isoproterenol 10 pM to 10 μM; for Recruitment to B2AR compared to wild-type arrestin-3 (in words): isoproterenol concentration-response curves, FIG. 1; for Efficacy (Emax ± Std. error) in %, normalized to WT: maximal isoproterenol-induced recruitment to β2AR, WT arrestin-3 at 10 μM isoproterenol set to 100%
Experimental: […] were seeded onto poly-L-lysine coated, white, 96-well plates at a density of ˜25,000 cells per well. […] The day following transfection, cell culture medium was exchanged with fresh medium. Another 24 h later cell culture medium was replaced with assay buffer (HBSS+20 mM HEPES and pH 7.4) and cells were treated with 5 μM cell-permeable substrate Coelenterazine 400A (Cayman Chemical), which is catalysed by the BRET donor RLuc8, resulting in the emission of light (λmax=410 nm). BRET measurement was performed in a plate reader PheraStar FSX (BMG Biotech) with the optical module (BRET2 plus, 515-30, 410-80). At t=4.5 min, isoproterenol (Tocris Bioscience) was added at increasing concentrations to the cells (from 10 pM to 10 μM). BRET ratio was determined by calculating the ratio of the light intensity emitted by the GFP (515 nm) over the light intensity emitted by the Rluc8/Coelenterazine 400A (410 nm). […] The coefficient of determination R^2 can range between 0 and 1 and represents the quality of the fitting between the experimental values (marks, FIG. 1) and the non-linear regression analysis (curves, FIG. 1). Experiments were performed in technical duplicates in two independent experiments.
An arrestin recruitment assay based on Bioluminescence Resonance Energy Transfer (BRET) was performed to compare the recruitment efficiencies of arrestin-3 double and triple mutants with wild-type arrestin-3 towards B2AR.
The recruitment responses can be defined by two pharmacological parameters: potency and efficacy. In general, efficacy (Emax) is a measure of the maximum effect that is expected from a compound/drug. […] Potency is often given as the EC50 value, which defines the amount of compound required to produce 50% of that compound's maximal effect. For simpler illustration, the pEC50 value, which is the negative logarithm of the EC50 in molar concentrations, is shown.
The potency (pEC50) represents the molar concentration of isoproterenol necessary to obtain half of the total recruitment of arrestin-3 or efficiency (Emax) for each arrestin.

Molecule | Potency (pEC50 ± Std. error) | Recruitment to B2AR compared to wild-type arrestin-3 (in words) | Efficacy (Emax ± Std. error) in %, normalized to WT [%] | EC50 (converted from pEC50, isoproterenol-induced recruitment to β2AR, read-out: Potency expressed as isoproterenol concentration) [nM]
Double mutant A: Arrestin-3 double mutant containing T299A and I386A when compared to human wt arrestin-3 | 7.1±0.03 | increased recruitment efficacy | 131.5±1.82 | 
Triple mutant B: Arrestin-3 triple mutant containing T299A, I386A and R166A when compared to human wt arrestin-3 (protein, Arrestin-3 triple mutant B containing T299A, I386A and R166A) MGEKPGTRVFKKSSPNCKLTVYLGKRDFVDHLDKVDPVDGVVLVDPDYLKDRKVFVTLTCAFRYGREDLDVLGLSFRKDLFIATYQAFPPVPNPPRPPTRLQDRLLRKLGQHAHPFFFTIPQNLPCSVTLQPGPEDTGKACGVDFEIRAFCAKSLEEKSHKRNSVALVIRKVQFAPEKPGPQPSAETTRHFLMSDRSLHLEASLDKELYYHGEPLNVNVHVTNNSTKTVKKIKVSVRQYADICLFSTAQYKCPVAQLEQDDQVSPSSTFCKVYTITPLLSDNREKRGLALDGKLKHEDANLASSTIVKEGANKEVLGILVSYRVKVKLVVSRGGDVSVELPFVLMHPKPHDHIPLPRPQSAAPETDVPVDTNLIEFDTNYATDDDAVFEDFARLRLKGMKDDDYDDQLC | 7.3±0.06 | increased recruitment efficacy | 103.0 ± 2.53 | 50.1
Triple mutant C: Arrestin-3 triple mutant containing T299A, I386A and D298A when compared to human wt arrestin-3 (protein, Arrestin-3 triple mutant C containing T299A, I386A and D298A) MGEKPGTRVFKKSSPNCKLTVYLGKRDFVDHLDKVDPVDGVVLVDPDYLKDRKVFVTLTCAFRYGREDLDVLGLSFRKDLFIATYQAFPPVPNPPRPPTRLQDRLLRKLGQHAHPFFFTIPQNLPCSVTLQPGPEDTGKACGVDFEIRAFCAKSLEEKSHKRNSVRLVIRKVQFAPEKPGPQPSAETTRHFLMSDRSLHLEASLDKELYYHGEPLNVNVHVTNNSTKTVKKIKVSVRQYADICLFSTAQYKCPVAQLEQDDQVSPSSTFCKVYTITPLLSDNREKRGLALDGKLKHEAANLASSTIVKEGANKEVLGILVSYRVKVKLVVSRGGDVSVELPFVLMHPKPHDHIPLPRPQSAAPETDVPVDTNLIEFDTNYATDDDAVFEDFARLRLKGMKDDDYDDQLC | 7.2 ± 0.04 |  | 108.9 ± 1.84 | 
Triple mutant D: Arrestin-3 triple mutant containing T299A, I386A and R393A when compared to human wt arrestin-3 (protein, Arrestin-3 triple mutant D containing T299A, I386A and R393A) MGEKPGTRVFKKSSPNCKLTVYLGKRDFVDHLDKVDPVDGVVLVDPDYLKDRKVFVTLTCAFRYGREDLDVLGLSFRKDLFIATYQAFPPVPNPPRPPTRLQDRLLRKLGQHAHPFFFTIPQNLPCSVTLQPGPEDTGKACGVDFEIRAFCAKSLEEKSHKRNSVRLVIRKVQFAPEKPGPQPSAETTRHFLMSDRSLHLEASLDKELYYHGEPLNVNVHVTNNSTKTVKKIKVSVRQYADICLFSTAQYKCPVAQLEQDDQVSPSSTFCKVYTITPLLSDNREKRGLALDGKLKHEDANLASSTIVKEGANKEVLGILVSYRVKVKLVVSRGGDVSVELPFVLMHPKPHDHIPLPRPQSAAPETDVPVDTNLIEFDTNYATDDDAVFEDFAALRLKGMKDDDYDDQLC | 7.2 ± 0.03 |  | 89.2 ± 1.23 | 
